{"source": "the supplement of paper PMC10567573", "parents": {"B1": {"name": "USP39 (parent)", "chain": "TLSEAYIQIWKRRDNDETNQQGA"}}}
{"variants_of": "B1", "experiment": "protein stability index of a GFP-peptide fusion (GPS, HEK-293T) (PSI 1-6); higher = more stable", "conditions": "c terminus: native"}
{"variant": "TLSEAYIQYWKRRDNDETNQQGA", "note": "[I9Y]", "protein stability index": 3.19}
{"variant": "TLSEAYIQLWKRRDNDETNQQGA", "note": "[I9L]", "protein stability index": 2.21}
{"variant": "TLSEAYIQTWKRRDNDETNQQGA", "note": "[I9T]", "protein stability index": 2.7}
{"variant": "TLSEAYIQFWKRRDNDETNQQGA", "note": "[I9F]", "protein stability index": 2.03}
{"variant": "TLSEAYIQMWKRRDNDETNQQGA", "note": "[I9M]", "protein stability index": 2.5}
{"variant": "TLSEAYIQGWKRRDNDETNQQGA", "note": "[I9G]", "protein stability index": 2.54}
{"variant": "TLSEAYIQPWKRRDNDETNQQGA", "note": "[I9P]", "protein stability index": 3.42}
{"variant": "TLSEAYIQSWKRRDNDETNQQGA", "note": "[I9S]", "protein stability index": 2.8}
{"variant": "TLSEAYIQRWKRRDNDETNQQGA", "note": "[I9R]", "protein stability index": 3.3}
{"variant": "TLSEAYIQEWKRRDNDETNQQGA", "note": "[I9E]", "protein stability index": 3.11}
{"variant": "TLSEAYIQNWKRRDNDETNQQGA", "note": "[I9N]", "protein stability index": 3.46}
{"variant": "TLSEAYIQWWKRRDNDETNQQGA", "note": "[I9W]", "protein stability index": 1.73}
{"variant": "TLSEAYIQVWKRRDNDETNQQGA", "note": "[I9V]", "protein stability index": 2.67}
{"variant": "TLSEAYIQIWKRRDNCETNQQGA", "note": "[D16C]", "protein stability index": 2.54}
{"variant": "TLSEAYIQIWKRRDNFETNQQGA", "note": "[D16F]", "protein stability index": 1.51}
{"variant": "TLSEAYIQIWKRRDNGETNQQGA", "note": "[D16G]", "protein stability index": 1.65}
{"variant": "TLSEAYIQIWKRRDNAETNQQGA", "note": "[D16A]", "protein stability index": 2.1}
{"variant": "TLSEAYIQIWKRRDNHETNQQGA", "note": "[D16H]", "protein stability index": 1.63}
{"variant": "TLSEAYIQIWKRRDNEETNQQGA", "note": "[D16E]", "protein stability index": 2.14}
{"variant": "TLSEAYIQIWKRRDYDETNQQGA", "note": "[N15Y]", "protein stability index": 1.28}
{"variant": "TLSEAYIQIWKRRDCDETNQQGA", "note": "[N15C]", "protein stability index": 2.31}
{"variant": "TLSEAYIQIWKRRDADETNQQGA", "note": "[N15A]", "protein stability index": 2.38}
{"variant": "TLSEAYIQIWKRRDEDETNQQGA", "note": "[N15E]", "protein stability index": 3.18}
{"variant": "TLSEAYIQIWKRRDTDETNQQGA", "note": "[N15T]", "protein stability index": 1.88}
{"variant": "TLSEAYIQIWKRRDVDETNQQGA", "note": "[N15V]", "protein stability index": 2.12}
{"variant": "TLSEAYIQIWKRRDKDETNQQGA", "note": "[N15K]", "protein stability index": 2.51}
{"variant": "TLSEAYIQIWKRRDHDETNQQGA", "note": "[N15H]", "protein stability index": 3.1}
{"variant": "TLSEAYIQIWKRRDMDETNQQGA", "note": "[N15M]", "protein stability index": 1.86}
{"variant": "TLSEAYIQIWKRRDIDETNQQGA", "note": "[N15I]", "protein stability index": 2.53}
{"variant": "TLSEAYIQIWKRRDQDETNQQGA", "note": "[N15Q]", "protein stability index": 2.01}
{"variant": "TLSEAYIQIWKRRDDDETNQQGA", "note": "[N15D]", "protein stability index": 3.03}
{"variant": "TLSEAYIQIWKRRDLDETNQQGA", "note": "[N15L]", "protein stability index": 1.92}
{"variant": "TLSEAYIQIWKRRDFDETNQQGA", "note": "[N15F]", "protein stability index": 2.24}
{"variant": "TLSEAYIQIWKRRDPDETNQQGA", "note": "[N15P]", "protein stability index": 1.77}
{"variant": "TLSEAYIQIWKRRDSDETNQQGA", "note": "[N15S]", "protein stability index": 1.88}
{"variant": "TLSEAYIQIWKRRDGDETNQQGA", "note": "[N15G]", "protein stability index": 2.68}
{"variant": "TLSEAYIQIWKRRDRDETNQQGA", "note": "[N15R]", "protein stability index": 2.24}
{"variant": "TLSEAYIQIWKRRDWDETNQQGA", "note": "[N15W]", "protein stability index": 2.36}
{"variant": "TLSEAYIQIWKRVDNDETNQQGA", "note": "[R13V]", "protein stability index": 1.97}
{"variant": "TLSEAYIQIWKRDDNDETNQQGA", "note": "[R13D]", "protein stability index": 3.22}
{"variant": "TLSEAYIQIWKREDNDETNQQGA", "note": "[R13E]", "protein stability index": 2.63}
{"variant": "TLSEAYIQIWKRHDNDETNQQGA", "note": "[R13H]", "protein stability index": 2.43}
{"variant": "TLSEAYIQIWKRPDNDETNQQGA", "note": "[R13P]", "protein stability index": 2.46}
{"variant": "TLSEAYIQIWKRIDNDETNQQGA", "note": "[R13I]", "protein stability index": 2.52}
{"variant": "TLSEAYIQIWKRQDNDETNQQGA", "note": "[R13Q]", "protein stability index": 4.3}
{"variant": "TLSEAYIQIWKRFDNDETNQQGA", "note": "[R13F]", "protein stability index": 1.48}
{"variant": "TLSEAYIQIWKRSDNDETNQQGA", "note": "[R13S]", "protein stability index": 2.07}
{"variant": "TLSEAYIQIWKRNDNDETNQQGA", "note": "[R13N]", "protein stability index": 2.37}
{"variant": "TLSEAYIQIWKRYDNDETNQQGA", "note": "[R13Y]", "protein stability index": 1.56}
{"variant": "TLSEAYIQIWKRTDNDETNQQGA", "note": "[R13T]", "protein stability index": 2.36}
{"variant": "TLSEAYIQIWKRGDNDETNQQGA", "note": "[R13G]", "protein stability index": 1.93}
{"variant": "TLSEAYIQIWKRKDNDETNQQGA", "note": "[R13K]", "protein stability index": 2.05}
{"variant": "TLSEAYIQIWKRCDNDETNQQGA", "note": "[R13C]", "protein stability index": 2.06}
{"variant": "TLSEAYIQIWKRLDNDETNQQGA", "note": "[R13L]", "protein stability index": 1.84}
{"variant": "TLSEAYIQIWKRMDNDETNQQGA", "note": "[R13M]", "protein stability index": 2.14}
{"variant": "TLSEAYIQIWKRRCNDETNQQGA", "note": "[D14C]", "protein stability index": 2.08}
{"variant": "TLSEAYIQIWKRRHNDETNQQGA", "note": "[D14H]", "protein stability index": 2.19}
{"variant": "TLSEAYIQIWKRRTNDETNQQGA", "note": "[D14T]", "protein stability index": 2.39}
{"variant": "TLSEAYIQIWKRRFNDETNQQGA", "note": "[D14F]", "protein stability index": 2}
{"variant": "TLSEAYIQIWKRRWNDETNQQGA", "note": "[D14W]", "protein stability index": 1.94}
{"variant": "TLSEAYIQIWKRRVNDETNQQGA", "note": "[D14V]", "protein stability index": 2.9}
{"variant": "TLSEAYIQIWKRRYNDETNQQGA", "note": "[D14Y]", "protein stability index": 1.9}
{"variant": "TLSEAYIQIWKRRQNDETNQQGA", "note": "[D14Q]", "protein stability index": 2.12}
{"variant": "TLSEAYIQIWKRRANDETNQQGA", "note": "[D14A]", "protein stability index": 2.1}
{"variant": "TLSEAYIQIWKRRINDETNQQGA", "note": "[D14I]", "protein stability index": 2.6}
{"variant": "TLSEAYIQIWKRRKNDETNQQGA", "note": "[D14K]", "protein stability index": 2.67}
{"variant": "TLSEAYIQIWKRRLNDETNQQGA", "note": "[D14L]", "protein stability index": 1.94}
{"variant": "TLSEAYIQIWKRRGNDETNQQGA", "note": "[D14G]", "protein stability index": 2.06}
{"variant": "TLSEAYIQIWKRRSNDETNQQGA", "note": "[D14S]", "protein stability index": 1.94}
{"variant": "TLSEAYIQIWKRRENDETNQQGA", "note": "[D14E]", "protein stability index": 2.07}
{"variant": "TLSEAYIQIWKRRMNDETNQQGA", "note": "[D14M]", "protein stability index": 2.01}
{"variant": "TLSEAYIQIWKRRRNDETNQQGA", "note": "[D14R]", "protein stability index": 2.74}
{"variant": "TLSEAYIQIWKRRPNDETNQQGA", "note": "[D14P]", "protein stability index": 2.37}
{"variant": "TLSEAYIQIWKRRNNDETNQQGA", "note": "[D14N]", "protein stability index": 1.71}
{"variant": "TLSEVYIQIWKRRDNDETNQQGA", "note": "[A5V]", "protein stability index": 2.93}
{"variant": "TLSEWYIQIWKRRDNDETNQQGA", "note": "[A5W]", "protein stability index": 2.18}
{"variant": "TLSETYIQIWKRRDNDETNQQGA", "note": "[A5T]", "protein stability index": 2.38}
{"variant": "TLSEYYIQIWKRRDNDETNQQGA", "note": "[A5Y]", "protein stability index": 2.57}
{"variant": "TLSEAYIQIWKNRDNDETNQQGA", "note": "[R12N]", "protein stability index": 3.13}
{"variant": "TLSEAYIQIWKARDNDETNQQGA", "note": "[R12A]", "protein stability index": 2.15}
{"variant": "TLSEAYIQIWKHRDNDETNQQGA", "note": "[R12H]", "protein stability index": 1.96}
{"variant": "TLSEAYIQIWKTRDNDETNQQGA", "note": "[R12T]", "protein stability index": 2.65}
{"variant": "TLSEAYIQIWKCRDNDETNQQGA", "note": "[R12C]", "protein stability index": 2}
{"variant": "TLSEAYIQIWKVRDNDETNQQGA", "note": "[R12V]", "protein stability index": 1.86}
{"variant": "TLSEAYIQIWKERDNDETNQQGA", "note": "[R12E]", "protein stability index": 2.65}
{"variant": "TLSEAYIQIWKDRDNDETNQQGA", "note": "[R12D]", "protein stability index": 3.2}
{"variant": "TLSEAYIQIWKYRDNDETNQQGA", "note": "[R12Y]", "protein stability index": 1.81}
{"variant": "TLSEAYIQIWKQRDNDETNQQGA", "note": "[R12Q]", "protein stability index": 2.87}
{"variant": "TLSEAYIQIWKGRDNDETNQQGA", "note": "[R12G]", "protein stability index": 3.15}
{"variant": "TLSEAYIQIWKKRDNDETNQQGA", "note": "[R12K]", "protein stability index": 2.89}
{"variant": "TLSEAYIQIWKWRDNDETNQQGA", "note": "[R12W]", "protein stability index": 1.18}
{"variant": "TLSEAYIQIWKIRDNDETNQQGA", "note": "[R12I]", "protein stability index": 3.09}
{"variant": "TLSEAYIQIWKLRDNDETNQQGA", "note": "[R12L]", "protein stability index": 1.98}
{"variant": "TLSEAYIQIWKPRDNDETNQQGA", "note": "[R12P]", "protein stability index": 2.07}
{"variant": "TLSEAYIQIWKMRDNDETNQQGA", "note": "[R12M]", "protein stability index": 2.1}
{"variant": "TLSEAYIQIWKFRDNDETNQQGA", "note": "[R12F]", "protein stability index": 2.61}
{"variant": "TLSEAYIQIWKSRDNDETNQQGA", "note": "[R12S]", "protein stability index": 2.53}
